Kd data for one molecule are collected here from patent US20220324996A1 (published 2022).

One test concerns the target T1, human SIRP-α v1 (human, UniProt P78324 31-149).
T1 construct: Soluble SIRP analyte in SPR; also called hSIRPa v1; Human V1
The experiment in a line: SPR. How it is done: The interactions of anti-SIRPα antibodies with SIRPα from various species (human v1, human v2, cynomolgus, mouse 129, BL6, BALBc, NOD), SIRPβ and SIRPγ were analyzed using two methods, direct immobilization of the antibodies (via GLC chip) or capture via biotinylated Protein A (via NLC chip), according to the following protocols. All experiments were performed at 25° C. using a SPR-based ProteOn XPR36 biosensor (BioRad. Inc, Hercules, Calif.) equipped with GLC or NLC sensor chips. […] Purification was carried out by standard Protein A affinity column chromatography and eluted antibodies were stored in PBS buffer.
For orientation: In SPR one partner is held on a chip, and binding of the other changes the refractive index at the surface.

A further test deals with T2, human SIRP-γ (human, UniProt Q9P1W8 29-147).
T2 construct: Soluble SIRP analyte in SPR; also called hSIRPg; SIRPg
The experiment in a line: SPR.

By Kd is commonly meant the concentration at which binding is half-saturated. A high value points to a looser complex.

T2 sequence (Q9P1W8 29-147 limits assumed): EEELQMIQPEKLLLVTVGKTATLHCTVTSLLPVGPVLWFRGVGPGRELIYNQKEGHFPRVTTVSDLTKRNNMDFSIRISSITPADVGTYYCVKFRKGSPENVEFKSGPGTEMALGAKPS
T1 sequence (P78324 31-149 limits assumed): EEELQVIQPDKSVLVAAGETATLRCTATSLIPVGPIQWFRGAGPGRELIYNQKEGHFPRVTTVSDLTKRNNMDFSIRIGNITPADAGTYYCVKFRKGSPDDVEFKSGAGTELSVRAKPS

B1: Hum1/AB21_HC_Mutall (antibody, V domains shown)
VH: EVQLVESGGGVVQPGGSLRLSCAASGFTFSSNAMSWVRQAPGKGLEWVAGISAGGSDTYYPASVKGRFTISRDNSKNTLYLQMNSLRAEDTAVYYCARETWNHLFDYWGQGTLVTVSS
VL: SYELTQPPSVSVSPGQTARITCSGGSYSSYYYAWYQQKPGQAPVTLIYSDDKRPSNIPERFSGSSSGTTVTLTISGVQAEDEADYYCGGYDQSSYTNPFGGGTKLTVL
notes: also called Hum1/AB21mutall
Consider B1, for which the Kd was at most 10 pM in the test with human SIRP-α v1 and above 1 pM with human SIRP-γ.
